Data on 46 sequences can be found in US20090018093.

Like-named read-outs stand apart in the source and are kept apart here.

This series concerns Immunoglobulin E (IgE) (Homo sapiens), P01854-1. In words: filter.
Sequence of Immunoglobulin E (IgE) (Homo sapiens), P01854-1 (P01854 other isoform, or with tags, fused parts or gaps): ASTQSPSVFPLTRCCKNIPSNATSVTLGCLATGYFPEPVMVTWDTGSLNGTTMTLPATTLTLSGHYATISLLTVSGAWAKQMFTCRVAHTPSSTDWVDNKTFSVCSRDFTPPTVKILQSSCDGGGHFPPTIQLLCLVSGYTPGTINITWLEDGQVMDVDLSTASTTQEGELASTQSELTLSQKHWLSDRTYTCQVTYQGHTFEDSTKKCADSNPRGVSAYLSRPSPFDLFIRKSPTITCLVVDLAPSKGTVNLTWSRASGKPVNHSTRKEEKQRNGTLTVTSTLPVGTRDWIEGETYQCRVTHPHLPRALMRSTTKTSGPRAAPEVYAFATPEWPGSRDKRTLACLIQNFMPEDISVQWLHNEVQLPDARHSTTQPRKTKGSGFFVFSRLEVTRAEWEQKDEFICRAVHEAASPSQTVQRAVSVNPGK

As a reminder, the Kd is the free concentration of one partner at which half of the binding sites on the other are occupied at equilibrium, for simple one-to-one binding. “GGGAGAGGAGAGAACGUUCUACGAUCUGGGCGAGCCAGUCUGACUGAGGAAGCGCUGUCGAUCGAUCGAUCGAUGAAGGGCG [rRmY clone SEQ 56]”: under “2'-OMe C,U, 2'-OH A,G, DPBS, 0.1 mg/mL tRNA, RT”, the equilibrium dissociation constant (Kd) came to 500 nM.
As for “GGGAGAGGAGAGAACGUUCUACGCAGCGCAUCUGGGGACCCAAGAGGGGAUUCGCUGUCGAUCGAUCGAUCGAUG [ARC2001]”, the dissociation constant Kd (dRmY: 2'-deoxy A,G, 2'-OMe C,U, error 0.1, dPBS Ca/Mg + BSA, RT) stood at 18 nM.
Sequence “GGGCAACTTTATCCGTTCCTCTTAGTGGGTTGCCCC [DNA clone SEQ 139]” showed a Kd of 0.4 nM.
“GGGCTACTTTATCCGTCCCTCCTAGTGGGTAGCCCC [DNA clone SEQ 140]” had a Kd of 0.2 nM.
Sequence “GGGCTACTTTATCCGTTCCTCCTAGTGGGTAGCCCT [ARC1306]” registered a Kd (2'-OMe stem block as printed in Table 18, 3' idT [2'-OMe: stem block (exact positions not given in the material), 36 = 3' inverted dT], DPBS Mg/Ca, BSA) of 14 nM.
In turn, “GGGGCACATTCATCCGTCCCTCCTAGTGGTGTGCTCC [DNA clone SEQ 128]” returned an equilibrium dissociation constant (Kd) of 0.5 nM.
Consider “GGGGCACATTTATCCGTCCCTCCTAGTGGTGTGCCCC [DNA clone SEQ 119]”, for which the dissociation constant (Kd) was 0.6 nM.
Same read-out and setting: the figure for “GGGGCAGCTTTATCCGTACCTCCCAGTGGGCTGCCCC [ARC474]” is 0.7 nM; for “GGGGCAGCTTTATCCGTTCCTCCTAGTGGGCTGCCTC [DNA clone SEQ 131]” it is 0.3 nM; for “GGGGCTACTTCATCCGTCCCTCCTAGTGGGTAGCCCC [ARC478]” it is 0.4 nM.
In turn, “GGGGCTACTTGATCCGTCCCTCCTAGTGGGTAGCCCC [ARC477]” had a Kd of 0.6 nM.
In turn, “GGGGCTACTTTATCCGTTCCTCCTAGTGGGTAGCCCC [ARC1391]” gave a Kd (2'-OMe at 1-4,7,33-37, PS 8-9, 3' idT [2'-OMe at 1-4,7,33-37, PS linkage 8-9 (internal N = PS, not a base), 3' inverted dT cap (terminal N, left out)], DPBS Mg/Ca, BSA) of 4.4 nM.
For the sequence “GGGGCTACTTTATCCGTTCCTCCTAGTGGGTAGCCCC [ARC1392]”, under “2'-OMe at 1-4,7,33-37, PS 9-10, 3' idT [2'-OMe at 1-4,7,33-37, PS linkage 9-10 (internal N = PS, not a base), 3' inverted dT cap (terminal N, left out)], DPBS Mg/Ca, BSA”, the Kd is 3 nM.
The sequence “GGGGCTACTTTATCCGTTCCTCCTAGTGGGTAGCCCC [ARC1394]” showed a Kd (2'-OMe at 1-4,7,33-37, PS 11-12, 3' idT [2'-OMe at 1-4,7,33-37, PS linkage 11-12 (internal N = PS, not a base), 3' inverted dT cap (terminal N, left out)], DPBS Mg/Ca, BSA) of 8.1 nM.
Where the note is “2'-OMe at 1-4,7,33-37, PS 12-13, 3' idT [2'-OMe at 1-4,7,33-37, PS linkage 12-13 (internal N = PS, not a base), 3' inverted dT cap (terminal N, left out)], DPBS Mg/Ca, BSA”, “GGGGCTACTTTATCCGTTCCTCCTAGTGGGTAGCCCC [ARC1395]” displayed a Kd of 5.7 nM.
In the case of “GGGGCTACTTTATCCGTTCCTCCTAGTGGGTAGCCCC [ARC1396]”, the dissociation constant Kd (2'-OMe at 1-4,7,33-37, PS 13-14, 3' idT [2'-OMe at 1-4,7,33-37, PS linkage 13-14 (internal N = PS, not a base), 3' inverted dT cap (terminal N, left out)], DPBS Mg/Ca, BSA) stood at 2 nM.
Take “GGGGCTACTTTATCCGTTCCTCCTAGTGGGTAGCCCC [ARC1397]”: the dissociation constant (Kd) (2'-OMe at 1-4,7,33-37, PS 14-15, 3' idT [2'-OMe at 1-4,7,33-37, PS linkage 14-15 (internal N = PS, not a base), 3' inverted dT cap (terminal N, left out)], DPBS Mg/Ca, BSA) was 1.8 nM.
With “GGGGCTACTTTATCCGTTCCTCCTAGTGGGTAGCCCC [ARC1398]”, the Kd (2'-OMe at 1-4,7,33-37, PS 15-16, 3' idT [2'-OMe at 1-4,7,33-37, PS linkage 15-16 (internal N = PS, not a base), 3' inverted dT cap (terminal N, left out)], DPBS Mg/Ca, BSA) is 2.7 nM.
In turn, “GGGGCTACTTTATCCGTTCCTCCTAGTGGGTAGCCCC [ARC1399]” yielded a Kd (2'-OMe at 1-4,7,33-37, PS 16-17, 3' idT [2'-OMe at 1-4,7,33-37, PS linkage 16-17 (internal N = PS, not a base), 3' inverted dT cap (terminal N, left out)], DPBS Mg/Ca, BSA) of 1.8 nM.
Sequence “GGGGCTACTTTATCCGTTCCTCCTAGTGGGTAGCCCC [ARC1400]” displayed a dissociation constant Kd (2'-OMe at 1-4,7,33-37, PS 17-18, 3' idT [2'-OMe at 1-4,7,33-37, PS linkage 17-18 (internal N = PS, not a base), 3' inverted dT cap (terminal N, left out)], DPBS Mg/Ca, BSA) of 2.4 nM.
“GGGGCTACTTTATCCGTTCCTCCTAGTGGGTAGCCCC [ARC1401]” came in with an equilibrium dissociation constant (Kd) (2'-OMe at 1-4,7,33-37, PS 18-19, 3' idT [2'-OMe at 1-4,7,33-37, PS linkage 18-19 (internal N = PS, not a base), 3' inverted dT cap (terminal N, left out)], DPBS Mg/Ca, BSA) of 2 nM.
In the case of “GGGGCTACTTTATCCGTTCCTCCTAGTGGGTAGCCCC [ARC1402]”, where the note is “2'-OMe at 1-4,7,33-37, PS 19-20, 3' idT [2'-OMe at 1-4,7,33-37, PS linkage 19-20 (internal N = PS, not a base), 3' inverted dT cap (terminal N, left out)], DPBS Mg/Ca, BSA”, the Kd is 2.1 nM.
The sequence “GGGGCTACTTTATCCGTTCCTCCTAGTGGGTAGCCCC [ARC1404]” registered a Kd (2'-OMe at 1-4,7,33-37, PS 21-22, 3' idT [2'-OMe at 1-4,7,33-37, PS linkage 21-22 (internal N = PS, not a base), 3' inverted dT cap (terminal N, left out)], DPBS Mg/Ca, BSA) of 1.8 nM.
Take “GGGGCTACTTTATCCGTTCCTCCTAGTGGGTAGCCCC [ARC1405]”: the Kd (2'-OMe at 1-4,7,33-37, PS 22-23, 3' idT [2'-OMe at 1-4,7,33-37, PS 22-23, 3' idT cap after 37 (left out)], DPBS Mg/Ca, BSA) was 2.5 nM.
As to “GGGGCTACTTTATCCGTTCCTCCTAGTGGGTAGCCCC [ARC1406]”, the Kd (2'-OMe at 1-4,7,33-37, PS 23-24, 3' idT [2'-OMe at 1-4,7,33-37, PS 23-24, 3' idT cap after 37 (left out)], DPBS Mg/Ca, BSA) is 3.2 nM.
The sequence “GGGGCTACTTTATCCGTTCCTCCTAGTGGGTAGCCCC [ARC1407]” showed a Kd (2'-OMe at 1-4,7,33-37, PS 24-25, 3' idT [2'-OMe at 1-4,7,33-37, PS 24-25, 3' idT cap after 37 (left out)], DPBS Mg/Ca, BSA) of 1.8 nM.
With “GGGGCTACTTTATCCGTTCCTCCTAGTGGGTAGCCCC [ARC1408]”, the dissociation constant Kd (2'-OMe at 1-4,7,33-37, PS 25-26, 3' idT [2'-OMe at 1-4,7,33-37, PS 25-26, 3' idT cap after 37 (left out)], DPBS Mg/Ca, BSA) was determined as 1 nM.
Regarding “GGGGCTACTTTATCCGTTCCTCCTAGTGGGTAGCCCC [ARC1411]”, the dissociation constant (Kd) (2'-OMe at 1-4,7,33-37, PS 28-29, 3' idT [2'-OMe at 1-4,7,33-37, PS 28-29, 3' idT cap after 37 (left out)], DPBS Mg/Ca, BSA) was determined as 5.4 nM.
For “GGGGCTACTTTATCCGTTCCTCCTAGTGGGTAGCCCC [ARC1412]”, the dissociation constant Kd (2'-OMe at 1-4,7,33-37, PS 29-30, 3' idT [2'-OMe at 1-4,7,33-37, PS 29-30, 3' idT cap after 37 (left out)], DPBS Mg/Ca, BSA) was 2.5 nM.
Under “2'-OMe at 1-4,7,33-37, PS 30-31, 3' idT [2'-OMe at 1-4,7,33-37, PS 30-31, 3' idT cap after 37 (left out)], DPBS Mg/Ca, BSA”, “GGGGCTACTTTATCCGTTCCTCCTAGTGGGTAGCCCC [ARC1413]” gave a dissociation constant (Kd) of 3.3 nM.
“GGGGCTACTTTATCCGTTCCTCCTAGTGGGTAGCCCC [ARC1414]” displayed a Kd (2'-OMe at 1-4,7,33-37, PS 31-32, 3' idT [2'-OMe at 1-4,7,33-37, PS 31-32, 3' idT cap after 37 (left out)], DPBS Mg/Ca, BSA) of 2.9 nM.
For “GGGGCTACTTTATCCGTTCCTCCTAGTGGGTAGCCCC [ARC1415]”, the equilibrium dissociation constant (Kd) (2'-OMe at 1-4,7,33-37, multiple PS as printed, 3' idT [2'-OMe at 1-4,7,33-37, PS 9-10,12-13,14-15,18-19,21-22,24-25,27-28,30-31, 3' idT cap after 37 (left out)], DPBS Mg/Ca, BSA) was determined as 1.2 nM.
Sequence “GGGGCTACTTTATCCGTTCCTCCTAGTGGGTAGCCCCN [ARC1280]” registered an equilibrium dissociation constant (Kd) (2'-OMe at 16, 3' idT, DPBS Mg/Ca, BSA) of 0.6 nM.
On to “GGGGCTACTTTATCCGTTCCTCCTAGTGGGTAGCCCCN [ARC1283]”, for which the dissociation constant Kd (2'-OMe at 19, 3' idT, DPBS Mg/Ca, BSA) was determined as 0.6 nM.
With “GGGGCTACTTTATCCGTTCCTCCTAGTGGGTAGCCCCN [ARC1284]”, for the setting “2'-OMe at 20, 3' idT, DPBS Mg/Ca, BSA”, the Kd worked out at 0.1 nM.
Regarding “GGGGCTACTTTATCCGTTCCTCCTAGTGGGTAGCCCCN [ARC1287]”, the Kd (2'-OMe at 23, 3' idT, DPBS Mg/Ca, BSA) stood at 1 nM.
Take “GGGGCTACTTTATCCGTTCCTCCTAGTGGGTAGCCCCN [ARC1294]”: the dissociation constant Kd (2'-OMe at 30, 3' idT, DPBS Mg/Ca, BSA) was found to be 8 nM.
With “GGGGCTACTTTATCCGTTCCTCCTAGTGGGTAGCCCCN [ARC1296]”, the Kd (2'-OMe at 32, 3' idT, DPBS Mg/Ca, BSA) came to 1.2 nM.
Sequence “GGGGCTACTTTATCCGTTCCTCCTAGTGGGTAGCCCCN [ARC1297]” gave a dissociation constant (Kd) (2'-OMe at 33, 3' idT, DPBS Mg/Ca, BSA) of 0.8 nM.
On to “GGGGCTACTTTATCCGTTCCTCCTAGTGGGTAGCCCCT [ARC656]”, for which, under “3' idT [38 = 3' inverted dT], dPBS Ca/Mg + BSA”, the dissociation constant Kd was 0.2 nM.
For the sequence “GGGGCTACTTTATCCGTTCCTCCTAGTGGGTAGCCCCT [ARC1265]”, the Kd (2'-OMe at 1, 3' idT [1=2'-OMe G, 38=3' inverted dT], DPBS Mg/Ca, BSA) was 0.2 nM.
As to “GGGGCTACTTTATCCGTTCCTCCTAGTGGGTAGCCCCT [ARC1266]”, for the setting “2'-OMe at 2, 3' idT [2 (2'-OMe G), 38 (3' inverted dT)], DPBS Mg/Ca, BSA”, the dissociation constant (Kd) came to 0.2 nM.
“GGGGCTACTTTATCCGTTCCTCCTAGTGGGTAGCCCCT [ARC1267]” returned an equilibrium dissociation constant (Kd) (2'-OMe at 3, 3' idT [3 (2'-OMe G), 38 (3' inverted dT)], DPBS Mg/Ca, BSA) of 0.1 nM.
“GGGGCTACTTTATCCGTTCCTCCTAGTGGGTAGCCCCT [ARC1268]” displayed a dissociation constant (Kd) (2'-OMe at 4, 3' idT [4 (2'-OMe G), 38 (3' inverted dT)], DPBS Mg/Ca, BSA) of 0.2 nM.
Regarding “GGGGCTACTTTATCCGTTCCTCCTAGTGGGTAGCCCCT [ARC1269]”, for the setting “2'-OMe at 5, 3' idT [5 (2'-OMe C), 38 (3' inverted dT)], DPBS Mg/Ca, BSA”, the Kd came to 0.3 nM.
Regarding “GGGGCTACTTTATCCGTTCCTCCTAGTGGGTAGCCCCT [ARC1271]”, the Kd (2'-OMe at 7, 3' idT [7 (2'-OMe A), 38 (3' inverted dT)], DPBS Mg/Ca, BSA) came out at 0.2 nM.
